Test results: patent US20190282654A1 (OHIO STATE INNOVATION FOUNDATION, published 2019)
Square brackets hold non-standard residues; d marks the D form. Ends that are not written are not given here. 2Nal = N[C@@H](Cc1ccc2ccccc2c1)C(=O)O

B1: RRRRΦFTALDWSWLQT (peptide)
peptide: RRRR[2Nal]FTALDWSWLQT
B2: RRRRΦFCALDWSWLQC (peptide)
peptide: RRRR[2Nal]FCALDWSWLQC
modifications: cysteine pairing not given here

Target: T1, GST-NEMO(1-196) (UniProt Q9Y6K9 1-196)
T1 construct: range 1-196; Expressed in E. coli from pGEX4T3-GST-NEMO(1-196) and purified on glutathione-Sepharose; Used with the GST tag in the HTRF assay (30 nM); also called Recombinant GST-NEMO; NF-κB essential modifier; not shown: glutathione S-transferase (GST) tag encoded by the pGEX4T3 vector
T1 sequence (Q9Y6K9 1-196): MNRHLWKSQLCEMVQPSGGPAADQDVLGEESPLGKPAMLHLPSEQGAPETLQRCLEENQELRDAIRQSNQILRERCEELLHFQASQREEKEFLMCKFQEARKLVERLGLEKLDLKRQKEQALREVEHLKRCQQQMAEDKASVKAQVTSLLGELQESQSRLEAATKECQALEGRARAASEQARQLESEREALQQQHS
Assay: HTRF competition, NEMO-IKK interaction (FIG. 6)
Description: The plate was incubated for 2 h at room temperature. […] The data was analyzed using GraphPad Prism 6.0 and IC₅₀ values were obtained by fitting the data to the dose-response inhibition curves.

Row | Binder | IC50 [nM]
1 | B1 | 1600
2 | B2 | 1400
